# Test: soluble fraction after stress (log2 fold change); higher = more stays soluble; pooled small domains, quantitative proteomics
# Settings: stress: 75 degC
# 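Also: 20 min heating vs room temperature control held 20 min.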
row,Sequence,soluble fraction (log2)
1,HMYAVDTIHKGTITEMTDKGAVVSLGDNIDGFAPARQLVKEDGTTLKLGDTADFKVIEFSKATKRITLSH,0.58
2,HMYAVQKGDTLKKIADQFGISVDTIKWANDMKGDALSIDQELKIP,0.414
3,HMYDAEAINKFFDIENWDFGETFYFQELSAYIMNQLSPKLVTILIVPRQTTQAFGSLFEIKSEPDEIFAS,0.172
4,HMYDDEELDVLAHRPIESYTDAELAMLREVAETLLETDYEGWLKSLSMRGILLPPEILQLVT,-0.269
5,HMYDDLEPFDANGRLRWSDKELILAFGRHRGVTLQTLELNDPGYLRWLLSGNGPLEQQDRKRLEDILES,-1.45
6,HMYDEKTLRKAVLDYVRDNDDGRLDLMKIDSYLTSRYGNIDYAALGYNRLSMFISSFPELRRNSNYVTLRK,-1.44
7,HMYEDNERNLYSVVINFLNEHKIKISREAINLVINRSSGDKHNLKQELNKILNYSFSNKNITYETIEKLSN,-1.83
8,HMYEDNERSLVPIVQNFLKEKKILLSNQSINLIVQRSGGDRINLYNELQKIESFSKNQKKIDIGDIIKLTN,-1.03
9,HMYEDSNQSLNFFAIKFIKEKNIKISQETTNLIVERARGDRGNLINELQKLEALSLTRKKITQEDVFNLTN,-1.99
10,HMYEGLILINKYDSLVSAKLETNKIKSLGLFFEDMEEKIAVFSGPFKNNDINLKLDFLIRNGYLDAKIY,-4.87
11,HMYEIEDIKEKLLDLLANSKTGFSGLEISNRLGINRITVSKYLNIFSAEGLIKQKNIGNVIIWFVEDGIE,-0.509
12,HMYEVDGLGIRIAQLRKKQDLTQEAFARTLGVSPQAVSKWETGIGYPDITLLPQIAKELGVSIDQLFGRN,-0.307
13,HMYFGDADGNKKVDAADALYLKRHLADWEDYRELPQKTNVSWMDEASPANLMILERHIAGWKDYEMLPYT,-0.425
14,HMYFMDEETWESKKTLLNDWYEANPEYADRRAISDGLFKIGDLQPDFRRRHWGSIGVIFADIPNSPMG,-0.502
15,HMYGHKLDSYESYVVSELRRWPFLSAPQIHDRLKEHFSDLPLVTPKTVFNFVNRLRLTHSLPKE,-3.38
16,HMYGLSFLIGFTVVDRTYGDIGKVTAIDDSTVNTLMAVGDRLIPAQEAFITKIDNTKKIIYTQLPEGLL,-1.17
17,HMYGTQTVNRGAVQPGMLVKHKDSTWTASANARGRLYLHRGVEMTYTRDLLVEVYLNGLGNGL,0.158
18,HMYHADLIGLRVETAAGEKLGTVKAVHNFGAGDVIEITGAEDKDGLMVPFTAEVVPEVDIENGRIVVS,-0.0762
19,HMYHKKEKAQAANIEERIMILLSDGKHHHITEIKAIYVDEVITLNILEEMLAEEKVIIEGDMIMLVE,-3.64
20,HMYKLTTQRRAILDVIIENHDKHLNPEEIYDIVKEKYPEIGIATVYRTLQLLEKLNIIYRLNFDDGYNRYE,-2.87
21,HMYKLTYVVDGEVYLEETVSYGSKIAAAPAPEKEGYTFSGWEGLPEVMPAKDVTVSGSFTVN,-0.69
22,HMYKMKDRIKKIMEMQRTTQQDFADQLKIAPATLSSIFTGRTRPTLAIVDAIKSRFPQISTDWLMFGKGDM,-0.151
23,HMYKNAFITYDNNLYYLGSDSKMAIGWQSIGGNTYYFRNWGGMITGKQVIDGKTYVFDEDGKLVQSPD,-1.25
24,HMYLNYQTIGKRIRLLRKQQHLTQMTLAEMVDKSPTYISLVENGQKGPSLETLIDVANALKVTMDVLLAEY,-4.94

row,Sequence,soluble fraction (log2)
1,HMYLPPYMEVRAVMILDGKPMALMYIEGEGDGLIVSPGYKFDNGKGKVVSITPTKVVVLWAGTKMELG,-3.37
2,HMYLYHDLSDEAKAMGDEYVSVEHLVLALIRYPNNAVKELFREFGITRERFLQVLSTIRGNQRVTSDNPEA,0.0272
3,HMYMFSGQRLKSLRKEKKMSQEKLGSLLNISKVAVSNWENAKSFPTMDNLNELAKVLEVEPHYF,-1.33
4,HMYMKLSVKDAALFLSVSPETVYRWVKQEEIPYHTVNDQLRFNRAELLEWATARSLEVSPDLFVP,-3.84
5,HMYMWQVEDLIRANGLDIERIKDSIIRPYELDEERKRELTQWYEDLIDMMRREGVAQSGHLQIN,-3.28
6,HMYNMEELAGHTEKVYNSLPEELKLVIKLREIENMSYDEISLKTGMPIGTVRSRLHRAREILVDSLKDY,-1.28
7,HMYQNRLFYTLKTGETVADLSKSQDINLSTIWSLNKHLYSSESEMMKAAPGQQIILPLKKLP,-0.247
8,HMYQPLRDVIFETLRKAIVSGDIKPGERLMEVSLANQMGVSRTPVREAIRRLEAEGLVTMTPRKGTHVAE,-0.891
9,HMYQRLPFSFANRYKMVLESQHPERAPILYYVEPLKSAAIIEVSRVVKNGFTPQAITLDEFDKKLTDAYQR,-1.43
10,HMYRLSPSWRIVERDDGFEIYGGDDARFQLDPSPLVSRLAAGDAVTRDGLDPTGAIEFEQLLSAGMIRPEI,-0.263
11,HMYRYTTFKVKEADTLLPFIQKSLNGISHNRAKAILTGGGVLVDKKITRAYDFALRPGMTVEISKSKP,-1.72
12,HMYRYYSTLRPITPGAYPKPADNPAMLIHNFDNREYVGKIGREAWGYVEYNNPLTKEQIEAFDFVAE,0.0626
13,HMYSDIERAMTNAPEQFANKQAVLDFLNKNRIKKSEVDDYRIASLLKLYDDASPISKTEIISQVRT,0.396
14,HMYSDQRMEIFLEHLPDFIEQLSHKHVTRQMVWEDYRMIYPDGYGKSQFFFHLAQNLKAQKP,-3.21
15,HMYSYSFTSSEGSTFEGQLIRVEESQVTILRYADQKEFSIPKSRFIEADQVYFERWAIENPQL,-4.18
16,HMYSYSGSVSNTHDVPVSVVLKDAEGVAIASWDLQAKQSLNISAKDIATSSGTIEITGDGVSETKTVTFTK,1.03
17,HMYTVKELSRLTGLTPRTLRYYDAIGLLSPARNRDNDYRLYGGAEVDRLQEILLYREMGLPLEEIGRILD,-1.51
18,HMYTVQPHESLWSIAASQLGDGHRFTEIVDLNQELLGGKANFIKPGWVLQIP,-0.362
19,HMYTVVVGDSPSLIADKTGVPLKELTAMNPNLSDNFLPGKQLL,-0.0135
20,HMYVEVPNFIGVPLVKVQSELASLGLVFNKSVVYQTSPYLKGNILDQRPLPGEVVPLNTEMSFTVSSGPA,-0.5
21,HMYVKIAADAAMPYTIKRVVTDYSSAALDAAYDGSLPKWLTISSSTKDAGSGLYRHEIIYTVTAHPE,-0.666
22,HMYVYEPGEFAVRGSILDVYSYASEFPYRIDFFGDDVESIRTFEVQTQLSKEAKDRVSIVPDTEQ,-0.258
23,HMYYNDEELDGYRGTPSDAYSDNAVEEFREVLYTLREDEVSGWVRSLQLRGIFLPDAIKDETFLI,-1.33
24,HMYYTAPDGRKREILDAALRLIAAGGPDSLTYRRVADEAGVPLGSLTYYFEAREDLIREAFRLYIAEASR,-3.16

# Reference: the domain aggregation screens of Martell et al. (2025)
